Measurements: the nanobody polyreactivity screen of Harvey et al. (2022)

Assay: yeast display, Sf9 membrane polyspecificity reagent, FACS + sequencing; frameworks hold sequencing errors
Method in brief: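 A synthetic nanobody library was expressed on Saccharomyces cerevisiae BJ5465 by galactose induction for 36–48 hours. The library was stained for 1 hour at 4 °C with 10% biotinylated, detergent-solubilized Sf9 membrane reagent and enriched with streptavidin microbeads before FACS. Low and high (top ~1%) gates were set on anti-HA fluorescence for expression and streptavidin fluorescence for reagent binding, and each polyreactivity label reflects the gate of origin.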

Sequence | polyreactivity (PSR sort gate)
QVQLVESGGGLVQAGGSLRLSCAASGFIFPRNVMGWYRQAPGKERELVAAISRSGGSTYYADSVKGRITISRDNAKNTVYLQMNSLKPEDTAVYYCDKRTFYNGEYWGQGTQVTVSS | high polyreactivity
QVQLVESGGGLVQAGGSLRLSCAASGFIFPRYAMGWYRQAPGKERELVAAISYTGGSTYYADSVKGRFTISRDNAKNTVSLQMNSLKPEDTAVYYCYAYFLSQYQRGYRDDYWGQGTQVTVSS | high polyreactivity
QVQLVESGGGLVQAGGSLRLSCAASGFIFPTNTMGWYRQAPGKEREFVARITRSGTNTYYADSVKGRFTISRDNAKNTVYLQMNSLKAEDTAVYYCARRGTSSYRRYWLDSASNMDYWGQGTQVTVSS | high polyreactivity
QVQLVESGGGLVQAGGSLRLSCAASGFIFPTYAMGWYRQAPGKERELVAAISYRGGITSYADSVKGRFTISRDNAKNTVYLQMNSLKPEDTAVYYCAARGAWGYEYWGQGTQVTVSS | low polyreactivity
QVQLVESGGGLVQAGGSLRLSCAASGFIFPVNAMGWSRQAPGKERELVAGITSSGGSTYYADSVKGRFTISRDNAKNTVYLQMNSRKPEDTAVYYCNAYIDALPVSYHFDYWGQGTQLTVSS | low polyreactivity
QVQLVESGGGLVQAGGSLRLSCAASGFIFPVYAMGWYRQAPGKERELVAAITDSGDSTYYADSVKGRFTISRDNAKNTVYLQMNSLKPEDTAVYYCAAQVQYPRWYRSGKYDYWGQGTQVTVSS | low polyreactivity
QVQLVESGGGLVQAGGSLRLSCAASGFIFPWYAMGWYRQAPGKERELVAAISWSGGSTYYADSVKWRFTISRDNAKNTVYLQMNSLKPEDTAVYYCNDLYGRPGYDYWGQGTQVTVSS | low polyreactivity
QVQLVESGGGLVQAGGSLRLSCAASGFIFPWYTRGWYRQAPGKERELVAVINQSGGSTYYADSVKGRFTISRDNAKNTVYLQMNSLKPEDTAVYYCAAKSYRGSVKLRWSERGYWGQGTQVTVSS | high polyreactivity
QVQLVESGGGLVQAGGSLRLSCAASGFIFPYYAMGLYRQAPGKERELVAAITFSATRTYYADSVKGRFTISRDNAKNTVYLQMNSLKPEDTAVYYCKARGGVYGSYFEFNYWRQGTQVTVSS | low polyreactivity
QVQLVESGGGLVQAGGSLRLSCAASGFIFPYYAMGWYRQAPGKEREFVAAITFSATRTYYADSVKGRFTISRDNAKNTVYLQMNSLKPEDTAVYYCNARGGVYGSYFEFNYWGQGTQVTVSS | low polyreactivity
QVQLVESGGGLVQAGGSLRLSCAASGFIFPYYDMGWYRQAPGKEREFVAAITKSGGRTYYADSVKGRFTISRDNAKNTVYLQMNSLKPEDTAVYYCNADDPDYLVSYRYDYWGQGTQVTVSS | low polyreactivity
QVQLVESGGGLVQAGGSLRLSCAASGFIFPYYDMGWYRQAPGTERELVAAISWSGDSTYYADSVKGRFTISRDNAKNTVYLQMNSLKPEDTAVYYCNVRARYQRYYYWGQGTQVTVSS | high polyreactivity
QVQLVESGGGLVQAGGSLRLSCAASGFIFQEYVMGWYRQAPGKERELVAAISRSGGRTYYADSVKGRFTISRDNAKNTVYLQMNSLKPEDTAVYYCAATYTKSHGVRYYHWGQGTQVTVSS | high polyreactivity
QVQLVESGGGLVQAGGSLRLSCAASGFIFQGYAMGWYRQAHGKEREFVAAITTSGGTTYYADSVKGSFTISRDNAKNTVYLQKNSLKPEDTAVYYCAARGATVSTRIYGYWGQGPQVTVSS | high polyreactivity
QVQLVESGGGLVQAGGSLRLSCAASGFIFQPYALGWYRQAPGKERELDASITLRGGSTYYADSVKGRFTISRDNAKNTVYLQMNSLKPEDTAVYYCAARIYQYWGGHYDYWGQGTQVTVSS | high polyreactivity
QVQLVESGGGLVQAGGSLRLSCAASGFIFQPYAMGWYRPAPGKERELVAGITGSGGNTYYADSVKGRFTISRDNAKNTVYLQMNSLKPEDTAVYYCAARRHIFLLIIWSGRVDYWGQGTEVTVSS | low polyreactivity

Sequence | polyreactivity (PSR sort gate)
QVQLVESGGGLVQAGGSLRLSCAASGFIFQSYAMGWYRQAPGKERELVASISASGGSTYYADSVKGRFTISRDNAKNTVYLQMNSLKPEDTAVYYCAAGYWSYWSLRMDYWGQGTQVTVSS | high polyreactivity
QVQLVESGGGLVQAGGSLRLSCAASGFIFQVYAMGWYRQAPGKERELVASISSSGGSTYYADSVKGRFTISRDNAKNTVYLQMNSLKPEDTAVYYCAVEQRYRYWYRYRYKFLLDSDYWGQGTQVTVSS | high polyreactivity
QVQLVESGGGLVQAGGSLRLSCAASGFIFQYNTMGWYRQAPGKERELVAVITRTGSTNYADSVKGRFTISRDNGKNTVYLQMNSLQPEDTAVYYCATSVYSRPRKPRYYYWGQGTQVTVSS | high polyreactivity
QVQLVESGGGLVQAGGSLRLSCAASGFIFQYYAMGWYRQAPGKERELVAAINRGGGTHYADSVKGRFTISRDNAKNTVYLQMNSLKPEDTAVYYCNKVYYWPGSRPSRYEYWGQGTQVTVSS | low polyreactivity
QVQLVESGGGLVQAGGSLRLSCAASGFIFQYYAMGWYRQAPGKERELVAAISWRSTSTYYADSVKGRFTISRDNAKNTVYLQMNSLKPEDTAVYYCAASPGFSIGYEYWGQGTQVTVSS | low polyreactivity
QVQLVESGGGLVQAGGSLRLSCAASGFIFQYYAMGWYRQAPGKERELVAAITPSGTSTYYADSVKGRFTISRDNAKNTVYLQMNSLKPEDTAVYYCAAYYRYASDYWGQGTQVTVSS | low polyreactivity
QVQLVESGGGLVQAGGSLRLSCAASGFIFRAYAMGWYRQAPGKERELVAAISGSGGSTYYADTVKGRFTISRDNAMNTVDLQMNSLKPEDTAVYYCNKYVGYYAYNYNYWGQGTQVTVSS | high polyreactivity
QVQLVESGGGLVQAGGSLRLSCAASGFIFRAYVMGWYRQAPGKERELVAAISYRGGSTNYADSVKGRFTISRDTAKNTVYLHMNSLKPEDTAVYYCAADQVHKREYDYWGQGTQVTVSS | low polyreactivity
QVQLVESGGGLVQAGGSLRLSCAASGFIFRDYDMGWYRQAPGKERELVPAISWRGGTYYADSVKGRFTISRDNAKNTVYLQMNSLKPEDTAVYYCNATRYRLRPSGVRYKYNYWGQGTQVTVSS | low polyreactivity
QVQLVESGGGLVQAGGSLRLSCAASGFIFRFNALGWYRQAPGKERELVAAISGSGGITYYADSVKGRFTISRDNAKNTVYLQMNSLKPEDTAVYYCAAGTGKRSVRFDYWGQGTQVTVSS | high polyreactivity
QVQLVESGGGLVQAGGSLRLSCAASGFIFRFNAMGWYRQAPGKERELVAGITWSGGSTYYADSVKGRFTISRDNAKNTVYLQMNSLKPEDTAVYYCDADNPYLGRKFDYWGQGTQVTVSS | high polyreactivity
QVQLVESGGGLVQAGGSLRLSCAASGFIFRGYAMGWYRQAPGKERELVAAINSGGSTNYADSVKGRFTISRDNAKNTVYLQMNSLKPEDTAVYYCAARVKTSYRYLRTYNYWGQGTQVTVSS | high polyreactivity
QVQLVESGGGLVQAGGSLRLSCAASGFIFRGYAMGWYRQAPGKERELVAAITSSGGDTYYADSVKGRFTISRDNAKNTVYLQMNSLKPEDSAVYYCAKRARRIGDVNMGSWGQGSQVTVSS | low polyreactivity
QVQLVESGGGLVQAGGSLRLSCAASGFIFRHYAMGWYRQSPGKAREMVAVINWSGSSTYYADSVKGRFTISRDNEKNTVFLQMNSLKPEDTAVYYCAVRSLRVDKYGYWGLGTQVTVSS | high polyreactivity
QVQLVESGGGLVQAGGSLRLSCAASGFIFRLYAMGWYRQAPGKERELVAAISTGGGRTYYADSVKGRFTFSGDNAKNTVYLQMNSLKPEDTADYDCNTLVEPHYDYWGQGTQVTVSS | high polyreactivity
